Reference: the supplement of paper PMC9876800

System: peptide library, one residue held at a place counted from the S/T acceptor
Assay: relative phosphorylation of the sub-library (ratio to the mean residue at this position); higher = residue favoured
Method in brief: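 Relative sub-library phosphorylation is a ratio to the mean residue at the same position. Purified recombinant kinases were incubated under kinase-specific conditions with biotinylated degenerate peptide sub-libraries, each fixing one residue at one position around a central Ser/Thr, using 50 μM peptide and 50 μM ATP spiked with γ-32P-ATP for 90 min. Spots captured on streptavidin membranes were phosphorimaged and quantified by densitometry.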

GRK3, construct: Full length, human, sequence (P35626 whole entry, looked up): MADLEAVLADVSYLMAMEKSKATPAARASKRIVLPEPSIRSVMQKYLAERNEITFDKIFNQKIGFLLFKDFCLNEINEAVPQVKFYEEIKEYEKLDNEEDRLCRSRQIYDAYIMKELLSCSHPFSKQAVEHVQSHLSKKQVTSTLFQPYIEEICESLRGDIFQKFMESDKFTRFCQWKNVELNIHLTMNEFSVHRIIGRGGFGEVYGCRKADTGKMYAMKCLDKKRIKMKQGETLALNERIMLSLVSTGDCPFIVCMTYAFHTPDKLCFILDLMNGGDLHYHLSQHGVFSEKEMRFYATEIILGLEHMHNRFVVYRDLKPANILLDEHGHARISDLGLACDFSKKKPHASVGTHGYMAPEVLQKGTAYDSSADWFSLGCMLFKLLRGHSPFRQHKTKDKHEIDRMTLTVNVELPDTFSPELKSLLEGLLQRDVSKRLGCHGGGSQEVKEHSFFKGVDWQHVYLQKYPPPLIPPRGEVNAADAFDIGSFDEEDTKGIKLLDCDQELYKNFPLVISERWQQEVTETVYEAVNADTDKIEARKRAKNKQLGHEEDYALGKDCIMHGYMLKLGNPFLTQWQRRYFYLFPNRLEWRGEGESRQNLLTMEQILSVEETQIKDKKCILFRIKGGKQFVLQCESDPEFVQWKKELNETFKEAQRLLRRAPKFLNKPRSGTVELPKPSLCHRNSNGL
GRK1, construct: Full length, human, sequence (Q15835 whole entry, looked up): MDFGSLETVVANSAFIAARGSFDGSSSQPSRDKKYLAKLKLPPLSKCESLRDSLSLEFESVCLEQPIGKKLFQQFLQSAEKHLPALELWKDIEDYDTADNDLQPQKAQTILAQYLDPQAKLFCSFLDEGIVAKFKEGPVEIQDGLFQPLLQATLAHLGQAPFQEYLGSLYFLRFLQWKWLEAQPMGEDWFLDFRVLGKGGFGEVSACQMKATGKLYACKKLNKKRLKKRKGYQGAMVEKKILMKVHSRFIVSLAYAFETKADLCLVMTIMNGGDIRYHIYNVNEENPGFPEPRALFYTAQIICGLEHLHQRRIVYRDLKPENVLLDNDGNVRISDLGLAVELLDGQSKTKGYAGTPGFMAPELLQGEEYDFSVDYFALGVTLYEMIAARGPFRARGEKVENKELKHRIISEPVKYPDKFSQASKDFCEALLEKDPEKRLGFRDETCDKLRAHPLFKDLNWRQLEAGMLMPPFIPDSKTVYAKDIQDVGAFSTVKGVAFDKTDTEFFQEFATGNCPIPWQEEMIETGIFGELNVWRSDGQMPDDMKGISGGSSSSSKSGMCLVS
BMPR1A, construct: aa187-end, human, sequence (P36894 187-532, looked up): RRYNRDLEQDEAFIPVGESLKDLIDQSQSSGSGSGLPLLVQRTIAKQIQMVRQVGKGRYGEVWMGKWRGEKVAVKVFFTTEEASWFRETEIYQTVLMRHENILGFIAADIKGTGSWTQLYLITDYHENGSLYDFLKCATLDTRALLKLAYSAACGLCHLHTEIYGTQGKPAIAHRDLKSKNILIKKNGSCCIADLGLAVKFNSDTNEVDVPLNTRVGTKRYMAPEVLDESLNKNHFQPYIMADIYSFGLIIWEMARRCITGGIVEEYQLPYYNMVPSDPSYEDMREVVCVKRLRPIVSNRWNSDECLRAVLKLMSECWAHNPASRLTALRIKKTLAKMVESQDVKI
NEK9, construct: Full length (D347-732), human, sequence (Q8TD19 whole entry, looked up): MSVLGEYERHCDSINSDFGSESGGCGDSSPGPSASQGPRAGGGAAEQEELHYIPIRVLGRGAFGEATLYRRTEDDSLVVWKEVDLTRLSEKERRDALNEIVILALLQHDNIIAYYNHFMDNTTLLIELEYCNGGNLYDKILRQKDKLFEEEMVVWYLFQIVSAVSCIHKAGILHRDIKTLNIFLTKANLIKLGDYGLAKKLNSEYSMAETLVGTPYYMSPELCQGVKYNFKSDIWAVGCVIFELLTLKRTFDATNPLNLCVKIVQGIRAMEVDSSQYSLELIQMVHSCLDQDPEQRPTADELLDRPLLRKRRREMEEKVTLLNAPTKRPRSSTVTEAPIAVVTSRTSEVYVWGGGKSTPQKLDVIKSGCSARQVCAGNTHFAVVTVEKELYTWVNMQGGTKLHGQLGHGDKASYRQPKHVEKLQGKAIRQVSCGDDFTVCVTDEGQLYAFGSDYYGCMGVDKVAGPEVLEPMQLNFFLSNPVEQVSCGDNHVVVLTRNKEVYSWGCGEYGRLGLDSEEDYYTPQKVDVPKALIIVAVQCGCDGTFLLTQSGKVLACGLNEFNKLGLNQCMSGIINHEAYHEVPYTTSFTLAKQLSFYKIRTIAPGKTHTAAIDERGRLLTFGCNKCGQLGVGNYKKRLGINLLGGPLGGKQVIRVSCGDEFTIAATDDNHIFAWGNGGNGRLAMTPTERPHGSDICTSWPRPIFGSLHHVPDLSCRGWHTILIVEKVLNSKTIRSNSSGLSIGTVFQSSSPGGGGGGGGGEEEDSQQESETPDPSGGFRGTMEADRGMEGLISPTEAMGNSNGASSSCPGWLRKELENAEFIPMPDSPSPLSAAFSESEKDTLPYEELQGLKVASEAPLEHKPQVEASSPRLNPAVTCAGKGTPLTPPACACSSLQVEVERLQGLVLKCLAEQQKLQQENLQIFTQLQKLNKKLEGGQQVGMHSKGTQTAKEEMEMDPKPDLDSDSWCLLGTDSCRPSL

GRK3, construct: Full length, human (from UniProt P35626)
relative phosphorylation
Conditions | at +1 | at +2 | at +3 | at +4 | at -1 | at -2 | at -3 | at -4 | at -5
A fixed | 0.782 | 1.39 | 0.849 | 0.868 | 0.913 | 0.745 | 0.971 | 1 | 1.03
D fixed | 1.07 | 0.888 | 1.9 | 1.5 | 1.25 | 1.53 | 2.52 | 1.73 | 1.39
E fixed | 1.75 | 0.887 | 1.99 | 1.36 | 1.62 | 4.07 | 3.01 | 1.78 | 1.2
F fixed | 1.36 | 1.18 | 0.882 | 0.855 | 0.914 | 0.895 | 0.666 | 0.868 | 1.1
G fixed | 0.857 | 0.967 | 1.04 | 1 | 0.703 | 0.784 | 0.822 | 0.962 | 0.9
H fixed | 0.973 | 1.22 | 1.03 | 1.06 | 1.06 | 0.755 | 0.631 | 0.892 | 0.929
I fixed | 1.27 | 1.44 | 0.933 | 1.1 | 0.913 | 0.573 | 0.649 | 0.855 | 1.06
K fixed | 0.51 | 0.51 | 0.614 | 0.725 | 0.658 | 0.59 | 0.629 | 0.843 | 0.824
L fixed | 0.766 | 0.705 | 0.898 | 0.829 | 0.979 | 0.688 | 0.604 | 0.844 | 1.03
M fixed | 1.24 | 0.904 | 0.979 | 0.994 | 1.05 | 0.746 | 0.68 | 1 | 0.964
N fixed | 0.742 | 0.874 | 0.922 | 1.03 | 1.02 | 0.854 | 0.845 | 0.932 | 0.946
P fixed | 0.477 | 0.495 | 0.638 | 1.01 | 1.4 | 0.833 | 0.907 | 0.974 | 0.788
Q fixed | 1.03 | 0.781 | 0.712 | 0.877 | 0.843 | 0.733 | 0.663 | 0.83 | 0.758
R fixed | 0.646 | 0.614 | 0.631 | 0.709 | 0.819 | 1.13 | 1.6 | 1.1 | 0.933
V fixed | 1.55 | 1.71 | 0.862 | 0.843 | 1.15 | 0.612 | 0.603 | 0.729 | 0.893
W fixed | 0.93 | 0.948 | 0.922 | 1.25 | 0.595 | 0.657 | 0.592 | 0.815 | 1.02
Y fixed | 1.03 | 1.48 | 1.2 | 0.992 | 1.12 | 0.794 | 0.605 | 0.847 | 1.23
pThr fixed | 7.07 | 1.13 | 1.13 | 2.86 | 1.38 | 5.37 | 5.68 | 2.74 | 1.72
pTyr fixed | 3.27 | 1.99 | 2.21 | 1.72 | 3.26 | 18.2 | 6.04 | 3.04 | 2.78

NEK9, construct: Full length (D347-732), human (from UniProt Q8TD19)
relative phosphorylation
Conditions | at +1 | at +2 | at +3 | at +4 | at -1 | at -2 | at -3 | at -4 | at -5
A fixed | 0.751 | 1.08 | 1.02 | 1.03 | 1 | 1.33 | 1.05 | 1.11 | 1.19
D fixed | 0.268 | 0.44 | 0.594 | 0.754 | 0.889 | 1.27 | 0.574 | 1.06 | 1.04
E fixed | 0.256 | 0.294 | 0.552 | 0.851 | 0.854 | 0.851 | 0.564 | 0.889 | 0.918
F fixed | 1.37 | 0.606 | 1.04 | 0.775 | 0.843 | 1 | 1.43 | 0.9 | 1.07
G fixed | 0.844 | 1.04 | 1.22 | 1.43 | 0.819 | 1.28 | 1.22 | 1.3 | 1.3
H fixed | 0.912 | 1.42 | 1.14 | 1.18 | 1.21 | 1.08 | 0.953 | 1.09 | 1.02
I fixed | 1.49 | 0.842 | 0.95 | 0.744 | 0.759 | 0.584 | 0.488 | 0.78 | 0.755
K fixed | 0.951 | 1.69 | 1.12 | 1.25 | 1.12 | 0.543 | 0.73 | 1.01 | 1.01
L fixed | 1.27 | 0.611 | 1.01 | 0.839 | 1.28 | 1.21 | 1.7 | 0.96 | 0.824
M fixed | 1.54 | 0.782 | 0.956 | 0.899 | 1.39 | 1.53 | 2.32 | 1.12 | 0.953
N fixed | 0.749 | 1.19 | 0.97 | 1.06 | 1.3 | 1.59 | 0.944 | 0.928 | 1.04
P fixed | 0.209 | 0.57 | 0.921 | 1.12 | 0.426 | 0.667 | 0.937 | 1.12 | 0.991
Q fixed | 1.14 | 0.892 | 0.943 | 1.01 | 1.12 | 0.996 | 0.808 | 0.85 | 0.764
R fixed | 1.42 | 2.78 | 1.2 | 1.38 | 1.24 | 0.591 | 0.748 | 0.879 | 1.06
V fixed | 1.3 | 0.894 | 0.887 | 0.696 | 0.688 | 0.461 | 0.407 | 0.688 | 0.895
W fixed | 1.14 | 0.755 | 1.23 | 1.13 | 0.941 | 1.02 | 1.14 | 1.36 | 1.22
Y fixed | 1.39 | 1.12 | 1.24 | 0.855 | 1.12 | 0.996 | 1 | 0.963 | 0.936
pThr fixed | 0.614 | 0.45 | 0.557 | 0.85 | 0.364 | 0.573 | 0.816 | 0.901 | 0.836
pTyr fixed | 0.517 | 0.399 | 0.599 | 0.722 | 1.01 | 0.91 | 0.826 | 0.787 | 0.886

BMPR1A, construct: aa187-end, human (from UniProt P36894)
relative phosphorylation
Conditions | at +1 | at +2 | at +3 | at +4 | at -1 | at -2 | at -3 | at -4 | at -5
A fixed | 0.574 | 0.952 | 0.911 | 0.854 | 0.648 | 0.721 | 0.791 | 0.912 | 0.982
D fixed | 2.03 | 1.24 | 1.79 | 1.3 | 1.72 | 1.97 | 2.32 | 2.47 | 1.88
E fixed | 6.79 | 1.52 | 1.55 | 1.31 | 1.95 | 7.73 | 2.92 | 1.81 | 1.65
F fixed | 0.398 | 0.622 | 0.89 | 0.889 | 0.797 | 0.384 | 0.65 | 0.792 | 0.807
G fixed | 0.58 | 1.89 | 0.941 | 1 | 0.483 | 0.579 | 0.948 | 0.958 | 0.93
H fixed | 0.431 | 1.25 | 0.889 | 1.06 | 0.983 | 0.483 | 0.826 | 0.987 | 1.02
I fixed | 0.677 | 0.554 | 1.01 | 1.01 | 0.809 | 0.432 | 0.662 | 0.781 | 0.83
K fixed | 0.335 | 0.803 | 0.498 | 0.738 | 0.587 | 0.351 | 0.564 | 0.741 | 0.86
L fixed | 0.417 | 0.613 | 0.926 | 0.797 | 1.17 | 0.453 | 0.649 | 0.701 | 0.802
M fixed | 0.57 | 0.721 | 0.85 | 0.922 | 1.67 | 0.462 | 0.859 | 0.808 | 0.791
N fixed | 0.668 | 0.776 | 0.793 | 0.946 | 1.01 | 0.693 | 1.24 | 1.08 | 1.22
P fixed | 0.265 | 1.31 | 0.936 | 0.964 | 0.466 | 0.401 | 0.74 | 0.775 | 0.699
Q fixed | 0.644 | 0.735 | 0.729 | 0.931 | 1.13 | 0.659 | 1.02 | 0.892 | 0.908
R fixed | 0.314 | 0.691 | 0.478 | 0.767 | 0.555 | 0.395 | 0.636 | 0.718 | 0.886
V fixed | 1.47 | 0.632 | 1.13 | 0.961 | 1.23 | 0.545 | 0.731 | 0.887 | 0.832
W fixed | 0.421 | 1.14 | 1.46 | 1.38 | 0.77 | 0.392 | 0.676 | 0.887 | 0.965
Y fixed | 0.417 | 1.55 | 1.21 | 1.18 | 1.02 | 0.349 | 0.755 | 0.791 | 0.928
pThr fixed | 5.36 | 1.98 | 1.01 | 1.31 | 1.08 | 1.66 | 2.19 | 1.53 | 1.46
pTyr fixed | 1.09 | 0.876 | 1.35 | 1.22 | 1.54 | 0.763 | 1.55 | 1.09 | 1.42

GRK1, construct: Full length, human (from UniProt Q15835)
relative phosphorylation
Conditions | at +1 | at +2 | at +3 | at +4 | at -1 | at -2 | at -3 | at -4 | at -5
A fixed | 0.624 | 1.06 | 0.886 | 1.02 | 0.737 | 0.553 | 0.76 | 1.15 | 1.16
D fixed | 0.767 | 1.81 | 2.19 | 2.5 | 1.31 | 0.963 | 1.16 | 1.43 | 2.29
E fixed | 2.89 | 1.47 | 2.19 | 2.42 | 1.39 | 1.28 | 1.19 | 1.75 | 1.74
F fixed | 0.711 | 0.778 | 0.638 | 0.645 | 0.641 | 2.3 | 0.881 | 0.585 | 0.659
G fixed | 0.605 | 0.939 | 1.68 | 1.06 | 0.652 | 0.519 | 0.912 | 1.29 | 2.07
H fixed | 0.592 | 0.984 | 0.958 | 0.932 | 0.962 | 0.701 | 0.746 | 0.843 | 0.894
I fixed | 1.47 | 0.921 | 0.682 | 0.734 | 0.654 | 0.86 | 0.841 | 0.627 | 0.556
K fixed | 0.65 | 0.587 | 0.793 | 0.622 | 1.56 | 0.619 | 0.706 | 0.673 | 0.682
L fixed | 1.23 | 0.823 | 0.662 | 0.653 | 0.852 | 1.02 | 0.583 | 0.568 | 0.491
M fixed | 0.973 | 0.961 | 0.721 | 0.662 | 0.723 | 0.708 | 0.671 | 0.645 | 0.533
N fixed | 0.621 | 1.3 | 0.861 | 0.861 | 1.23 | 0.691 | 1.07 | 0.933 | 0.983
P fixed | 0.522 | 0.592 | 0.823 | 1.18 | 2.04 | 1.11 | 2.74 | 2.68 | 1.31
Q fixed | 1.11 | 1.06 | 0.956 | 0.82 | 0.932 | 0.65 | 0.966 | 0.897 | 0.708
R fixed | 0.605 | 0.682 | 0.633 | 0.544 | 0.993 | 1.02 | 1.07 | 0.813 | 0.678
V fixed | 2.36 | 1.03 | 0.703 | 0.8 | 0.811 | 0.66 | 0.956 | 0.777 | 0.638
W fixed | 0.575 | 0.917 | 0.874 | 0.841 | 0.566 | 0.74 | 0.62 | 0.673 | 0.799
Y fixed | 0.701 | 1.1 | 0.754 | 0.707 | 0.953 | 2.61 | 1.13 | 0.662 | 0.81
pThr fixed | 2.35 | 0.972 | 1.21 | 3.6 | 3.08 | 4.99 | 3.2 | 1.84 | 1.43
pTyr fixed | 3.09 | 2.14 | 1.38 | 2.98 | 1.92 | 1.75 | 1.76 | 1.46 | 1.13
